One substance from PMC3542337 can be followed below.

This assay addresses E18A DJ-1-FLAG (in HeLa cells) (human) (UniProt Q99497). Kind of assay: cross-linking; HeLa cells transfected with FLAG-tagged DJ-1, without or with 20 uM CCCP for 7 hrs; cell extracts treated with 100 uM DSS for 10 min; Western blot with anti-FLAG. (In general: A western blot detects proteins with antibodies after separation by electrophoresis.)

Regarding “E18A DJ-1-FLAG (in HeLa cells) (from UniProt Q99497 1-189) (natural protein)”, the ratio of dimer (cells treated with CCCP) stood at 68.7 and the ratio of dimer (cells without CCCP) was determined as 57.2.
